Measured values from PMC5628019.

Target: MTTR (recombinant monomeric version of TTR), as non-native oligomers (human) (UniProt P02766)

incorporation compared to probe B-1: 90 % less
Substance: VAVHVF (truncated probe B-1, minimal binding competent sequence) (peptide)
